Data taken from patent US10421817 (BEIJING MABWORKS BIOTECH, dated 2019).
Numbering of substitutions follows the chain as printed.

T1: human Claudin 18.1 Mutant 15 (Claudin 18.1/S42A/Q45N/Q56E) (human, UniProt P56856 1-261)
T1 chain: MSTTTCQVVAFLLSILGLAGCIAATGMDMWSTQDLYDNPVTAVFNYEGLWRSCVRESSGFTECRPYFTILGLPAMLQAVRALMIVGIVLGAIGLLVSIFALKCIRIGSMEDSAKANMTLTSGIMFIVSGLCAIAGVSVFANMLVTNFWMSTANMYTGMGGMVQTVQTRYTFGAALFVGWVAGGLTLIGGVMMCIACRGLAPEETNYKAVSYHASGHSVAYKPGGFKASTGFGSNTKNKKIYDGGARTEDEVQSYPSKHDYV

T2: human Claudin 18.1 Mutant 16 (Claudin 18.1/S42A/Q45N/E47Q/Q56E) (human, UniProt P56856 1-261)
T2 chain: T1 chain with E47Q

B1: 18F2-66VH6VL3 (antibody, human IgG1, kappa)
heavy: not shown
light: DIVMTQSPSSLTVSLGEKATISCKSSQSLLNSGNQKNYVTWYQQKPGQPPKLLIYWSSTRSFGVPDRFSGSGSGTDFTLTISSLQAEDLAVYYCQNDYTYPFTFGSGTKLEIKRTVAAPSVFIFPPSDEQLKSGTASVVCLLNNFYPREAKVQWKVDNALQSGNSQESVTEQDSKDSTYSLSSTLTLSKADYEKHKVYACEVTHQGLSSPVTKSFNRGEC
notes: Humanized, human IgG1/kappa constant regions
B2: 18F2-66VH7VL3 (antibody, human IgG1, kappa)
heavy: not shown
light: B1 light
notes: as for B1
B3: 18F2-35VH5VL0 (antibody, human IgG1, kappa, V domains shown)
VH: QVQLVQSGAEVKKPGASVKVSCKASGYTFTSFWLNWVRQRPGQGLEWIGNIYPSTSYTIYNQKFKDRVTLTVDKSTSTAYMELSSLRSEDTAVYYCTRTWRGNSFDYWGQGTTVTVSS
VL: DIVMTQSPDSLAVSLGERATINCKSSQSLLNSGNQKNYLTWYQQKPGQPPKLLIYWGSTRVRGVPDRFSGSGSGTDFTLTISSLQAEDVAVYYCQNDYTYPFTFGQGTKLEIKR
notes: as for B1
B4: 18F2-35VH3VL0 (antibody, human IgG1, kappa, V domains shown)
VH: B3 VH with R40A, K74T, A79V, T97A
VL: B3 VL
notes: as for B1
B5: 18F2-66VH3VL0 (antibody, human IgG1, kappa, V domains shown)
VH: B3 VH with L34I, R40A, T55A, I59V, K74T, A79V, T97A, Y107L
VL: B3 VL with L39V, G57S, V61S, R62F
notes: as for B1
B6: 18F2-66VH2VL0 (antibody, human IgG1, kappa, V domains shown)
VH: B3 VH with L34I, R40A, T55A, I59V, A79V, T97A, Y107L
VL: B3 VL with L39V, G57S, V61S, R62F
notes: as for B1
B7: 18F2-66VH6VL0 (antibody, human IgG1, kappa, V domains shown)
VH: B3 VH with L34I, T55A, I59V, T76S, R87T, Y107L
VL: B3 VL with L39V, G57S, V61S, R62F
notes: as for B1
B8: 18F2-66VH4VL0 (antibody, human IgG1, kappa, V domains shown)
VH: B3 VH with L34I, T55A, I59V, A79V, T97A, Y107L
VL: B3 VL with L39V, G57S, V61S, R62F
notes: as for B1
B9: 18F2-35VH6VL0 (antibody, human IgG1, kappa, V domains shown)
VH: B3 VH with T76S, R87T
VL: B3 VL
notes: as for B1
B10: 18F2-35VH7VL0 (antibody, human IgG1, kappa, V domains shown)
VH: B3 VH with R38K, R67K
VL: B3 VL
notes: as for B1
B11: 18F2-35VH2VL0 (antibody, human IgG1, kappa, V domains shown)
VH: B3 VH with R40A, A79V, T97A
VL: B3 VL
notes: as for B1
B12: 18F2-35VH4VL0 (antibody, human IgG1, kappa, V domains shown)
VH: B3 VH with A79V, T97A
VL: B3 VL
notes: as for B1
B13: 18F2-66VH0VL0 (antibody, human IgG1, kappa, V domains shown)
VH: QVQLVQSGAEVKKPGASVKVSCKASGYTFTSFWINWVRQAPGQGLEWMGNIYPSASYTVYNQKFKDRVTMTRDTSTSTVYMELSSLRSEDTAVYYCARTWRGNSFDLWGQGTTVTVSS
VL: B3 VL with L39V, G57S, V61S, R62F
notes: as for B1
B14: 18F2-66VH5VL0 (antibody, human IgG1, kappa, V domains shown)
VH: B3 VH with L34I, T55A, I59V, Y107L
VL: B3 VL with L39V, G57S, V61S, R62F
notes: as for B1
B15: 18F2-30VH0VL0 (antibody, human IgG1, kappa, V domains shown)
VH: B13 VH with I34L, A55T, L107Y
VL: B3 VL with L39V, V61S, R62T
notes: as for B1
B16: 18F2-35VH0VL0 (antibody, human IgG1, kappa, V domains shown)
VH: B13 VH with I34L, A55T, V59I, L107Y
VL: B3 VL
notes: as for B1
B17: 18F2-30VH7VL3 (antibody, human IgG1, kappa, V domains shown)
VH: B3 VH with R38K, I59V, R67K
VL: B3 VL with D9S, A12T, R18K, N22S, L39V, V61S, R62T, V89L, Q106S
notes: as for B1
B18: 18F2-5 (antibody, human IgG1, kappa, V domains shown)
VH: QVQLQQPGAELVRPGASVKLSCKASGYTFTSFWLNWVKQRPGQGLEWIGNIYPSTSYTVYNQKFKDKATLTVDKSSSTAYMQLSSPTSEDSAVYYCTRTWRGNSFDLWGQGTTLTVSS
VL: DIVMTQSPSSLTVTAGEKVTMSCKSNQSLLNSGNQKNYVTWYQQKPGQPPKLLIYWGSTRVRGVPDRFTGSGSGTDFTLTISSVQAEDLAVYYCQNDYTYPFTFGSGTKLEIKR
B19: IMAB362 (antibody, V domains shown)
VH: B18 VH with F32Y, L34I, T55D, V59N, T99S, L107Y
VL: B18 VL with N26S, V39L, G57A, V61E, R62S, T99S
B20: 18F2-30 (antibody, human IgG1, kappa, V domains shown)
VH: B18 VH with L107Y
VL: B18 VL with N26S, V61S, R62T
B21: 18F2 (antibody, human IgG1, kappa, V domains shown)
VH: B18 VH with L34V, T99S, L107H
VL: B18 VL with N26S
notes: Chimeric full length antibody, mouse variable regions with human IgG1/kappa constant regions; also called clone 18F2; parent clone 18F2
B22: 18F2-35 (antibody, human IgG1, kappa, V domains shown)
VH: B18 VH with V59I, L107Y
VL: B18 VL with N26S, V39L
B23: 18F2-66 (antibody, human IgG1, kappa, V domains shown)
VH: B18 VH with L34I, T55A
VL: B18 VL with N26S, G57S, V61S, R62F

The binders below were run against T3, human Claudin 18.1 (human, UniProt P56856 1-261) (assay: FACS on HEK293A/hClaudin 18.1 cells).
T3 construct: Overexpressed on HEK293A cells by lentivirus
T3 sequence (P56856 whole entry): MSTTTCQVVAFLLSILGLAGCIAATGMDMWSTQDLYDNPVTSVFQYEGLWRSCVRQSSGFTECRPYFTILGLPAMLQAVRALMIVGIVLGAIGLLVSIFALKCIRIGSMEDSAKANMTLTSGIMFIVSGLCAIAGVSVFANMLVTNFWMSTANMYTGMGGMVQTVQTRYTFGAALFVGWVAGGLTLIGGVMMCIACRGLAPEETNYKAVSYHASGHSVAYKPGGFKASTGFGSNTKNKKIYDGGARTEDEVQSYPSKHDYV
B1: no binding. B2: no binding. B3: no binding. B4: no binding. B5: no binding. B6: no binding. B7: no binding. B8: no binding. B9: no binding. B10: no binding. B11: no binding. B12: no binding. B13: no binding. B14: no binding.

These binders were tested against human Claudin 18.1 Mutant 14 (Q56E) (human, UniProt P56856 1-261) (assay: FACS on HEK293A cells expressing mutant 14).
B15: binds. B16: binds. B17: binds.

Target: T1, human Claudin 18.1 Mutant 15 (Claudin …)
Test: FACS on HEK293A cells expressing mutant 15
B15: binds. B16: binds. B17: binds.

Target: T2, human Claudin 18.1 Mutant 16 (Claudin …)
Test: FACS on HEK293A cells expressing mutant 16
B15: binds. B16: binds. B17: binds.

What follows are binders tested against T4, human Claudin 18.2 (human) (assay: FACS on HEK-293A cells expressing human Claudin 18.2).
T4 construct: Overexpressed on HEK293A or MC38 cells by lentivirus; endogenous on KATO-III and NUGC-4 cells
In the case of B18, the EC50 is reported as 0.616 nM. With B19 the EC50 was 0.634 nM. For B20, the EC50 was 0.562 nM. With B21 the EC50 was 1.26 nM. B22 was tested, and the EC50 was 0.509 nM. B23 was tested, and the EC50 was 0.524 nM.

Each binder was assayed against T3, human Claudin 18.1 (assay: FACS on HEK293A cells expressing human Claudin 18.1 WT).
B15: no binding. B16: no binding. B17: no binding.
